Settings: Katsuwonus pelamis, pH 7.5, 25 °C, GdnHCl, CD, Tris 20 mM, NaCl 40 mM, reversible: yes

Cytochrome c K74Y, P00025, sequence (P00025 whole entry K74Y): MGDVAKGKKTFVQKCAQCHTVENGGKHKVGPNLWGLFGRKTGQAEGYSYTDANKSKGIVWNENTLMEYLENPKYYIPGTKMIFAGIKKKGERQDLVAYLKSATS
Cytochrome c K74M, P00025, sequence (P00025 whole entry K74M): as the sequence (P00025 whole entry K74Y) above, with Y74M counted along it
Cytochrome c wild type, P00025, sequence (P00025 whole entry): as the sequence (P00025 whole entry K74Y) above, with Y74K counted along it
Cytochrome c K74F, P00025, sequence (P00025 whole entry K74F): as the sequence (P00025 whole entry K74Y) above, with Y74F counted along it
Cytochrome c K74W, P00025, sequence (P00025 whole entry K74W): as the sequence (P00025 whole entry K74Y) above, with Y74W counted along it

Row | Substance | ddG of mutation (higher = less stable) (structure 1CYC) | denaturant m value (structure 1CYC) | denaturant midpoint (higher = more stable) (structure 1CYC) | unfolding free energy (structure 1CYC) | denaturant m value | denaturant midpoint (higher = more stable) | unfolding free energy
1 | Cytochrome c K74M, P00025 | 1 kcal/mol | 4.43 kcal/mol/M | 1 M | 4.66 kcal/mol |  |  | 
2 | Cytochrome c K74F, P00025 | 1.15 kcal/mol | 4.44 kcal/mol/M | 1 M | 4.51 kcal/mol |  |  | 
3 | Cytochrome c K74Y, P00025 | 1.05 kcal/mol | 4.62 kcal/mol/M | 1 M | 4.61 kcal/mol |  |  | 
4 | Cytochrome c K74W, P00025 | 1.43 kcal/mol | 4.16 kcal/mol/M | 1 M | 4.23 kcal/mol |  |  | 
5 | Cytochrome c wild type, P00025 |  |  |  |  | 4.87 kcal/mol/M | 1.16 M | 5.66 kcal/mol

Source: FireProtDB (doi:10.1021/bi00052a024)
